# Experimental data taken from the supplement of paper PMC10567573.
# B1: CLINT1 (parent)
# chain: VVTSAREHIYDLRSLENYHFVDEH
# Variants of: B1
# Assay: protein stability index of a GFP-peptide fusion (GPS, HEK-293T) (PSI 1-6); higher = more stable
# Settings: c terminus: a fixed tail appended
# 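Note: lentivirally expressed fusions sorted by FACS into six bins by GFP to DsRed ratio, PSI derived from sequencing read proportions per bin multiplied by bin number.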
row,Variant,protein stability index
1,VVTSAREHIYDLRSDENYHFVDEH,3.8
2,VVTSAREHIYDLRSEENYHFVDEH,3.46
3,VVTSAREHIYDLRSFENYHFVDEH,2.4
4,VVTSAREHIYDLRSGENYHFVDEH,3.56
5,VVTSAREHIYDLRSHENYHFVDEH,3.58
6,VVTSAREHIYDLRSIENYHFVDEH,2.99
7,VVTSAREHIYDLRSKENYHFVDEH,3.36
8,VVTSAREHIYDLRSMENYHFVDEH,2.62
9,VVTSAREHIYDLRSNENYHFVDEH,3.1
10,VVTSAREHIYDLRSPENYHFVDEH,3.31
11,VVTSAREHIYDLRSQENYHFVDEH,3.66
12,VVTSAREHIYDLRSRENYHFVDEH,3.53
13,VVTSAREHIYDLRSSENYHFVDEH,2.95
14,VVTSAREHIYDLRSTENYHFVDEH,3.2
15,VVTSAREHIYDLRSVENYHFVDEH,3.04
16,VVTSAREHIYDLRSWENYHFVDEH,2.56
17,VVTSAREHIYDLRSYENYHFVDEH,2.91
18,VVTSAREHIYDLRSLANYHFVDEH,2.19
19,VVTSAREHIYDLRSLCNYHFVDEH,1.93
20,VVTSAREHIYDLRSLDNYHFVDEH,2.77
21,VVTSAREHIYDLRSLFNYHFVDEH,2.13
22,VVTSAREHIYDLRSLGNYHFVDEH,2.11
23,VVTSAREHIYDLRSLHNYHFVDEH,2.26
24,VVTSAREHIYDLRSLINYHFVDEH,2.12

row,Variant,protein stability index
1,VVTSAREHIYDLRSLKNYHFVDEH,2.59
2,VVTSAREHIYDLRSLLNYHFVDEH,2.47
3,VVTSAREHIYDLRSLMNYHFVDEH,3.01
4,VVTSAREHIYDLRSLNNYHFVDEH,2.62
5,VVTSAREHIYDLRSLPNYHFVDEH,3.32
6,VVTSAREHIYDLRSLQNYHFVDEH,2.38
7,VVTSAREHIYDLRSLRNYHFVDEH,2.43
8,VVTSAREHIYDLRSLSNYHFVDEH,2.67
9,VVTSAREHIYDLRSLTNYHFVDEH,2.46
10,VVTSAREHIYDLRSLVNYHFVDEH,2.36
11,VVTSAREHIYDLRSLWNYHFVDEH,1.83
12,VVTSAREHIYDLRSLYNYHFVDEH,1.56
13,VVTSAREHIYDLRSLEAYHFVDEH,2.95
14,VVTSAREHIYDLRSLECYHFVDEH,2.35
15,VVTSAREHIYDLRSLEDYHFVDEH,3.52
16,VVTSAREHIYDLRSLEEYHFVDEH,2.96
17,VVTSAREHIYDLRSLEFYHFVDEH,1.86
18,VVTSAREHIYDLRSLEGYHFVDEH,2.81
19,VVTSAREHIYDLRSLEHYHFVDEH,2.45
20,VVTSAREHIYDLRSLEIYHFVDEH,1.83
21,VVTSAREHIYDLRSLEKYHFVDEH,2.63
22,VVTSAREHIYDLRSLELYHFVDEH,2.09
23,VVTSAREHIYDLRSLEMYHFVDEH,2.35
24,VVTSAREHIYDLRSLEPYHFVDEH,3.32

row,Variant,protein stability index
1,VVTSAREHIYDLRSLEQYHFVDEH,2.15
2,VVTSAREHIYDLRSLERYHFVDEH,2.95
3,VVTSAREHIYDLRSLESYHFVDEH,2.18
4,VVTSAREHIYDLRSLETYHFVDEH,2.67
5,VVTSAREHIYDLRSLEVYHFVDEH,2.14
6,VVTSAREHIYDLRSLEWYHFVDEH,1.96
7,VVTSAREHIYDLRSLEYYHFVDEH,1.97
8,VVTSAREHIYDLRSLENAHFVDEH,3.65
9,VVTSAREHIYDLRSLENCHFVDEH,3.3
10,VVTSAREHIYDLRSLENDHFVDEH,4.14
11,VVTSAREHIYDLRSLENEHFVDEH,4.26
12,VVTSAREHIYDLRSLENFHFVDEH,2.5
13,VVTSAREHIYDLRSLENGHFVDEH,3.78
14,VVTSAREHIYDLRSLENHHFVDEH,3.59
15,VVTSAREHIYDLRSLENIHFVDEH,3
16,VVTSAREHIYDLRSLENKHFVDEH,3.6
17,VVTSAREHIYDLRSLENLHFVDEH,2.94
18,VVTSAREHIYDLRSLENMHFVDEH,2.88
19,VVTSAREHIYDLRSLENNHFVDEH,4.48
20,VVTSAREHIYDLRSLENPHFVDEH,3.71
21,VVTSAREHIYDLRSLENQHFVDEH,3.87
22,VVTSAREHIYDLRSLENRHFVDEH,3.72
23,VVTSAREHIYDLRSLENSHFVDEH,4.05
24,VVTSAREHIYDLRSLENTHFVDEH,3.94

row,Variant,protein stability index
1,VVTSAREHIYDLRSLENVHFVDEH,3.24
2,VVTSAREHIYDLRSLENWHFVDEH,2.94
3,VVTSAREHIYDLRSLENYAFVDEH,2.03
4,VVTSAREHIYDLRSLENYCFVDEH,2.33
5,VVTSAREHIYDLRSLENYDFVDEH,3.99
6,VVTSAREHIYDLRSLENYEFVDEH,3.8
7,VVTSAREHIYDLRSLENYFFVDEH,2.26
8,VVTSAREHIYDLRSLENYGFVDEH,3.16
9,VVTSAREHIYDLRSLENYIFVDEH,2.41
10,VVTSAREHIYDLRSLENYKFVDEH,4.3
11,VVTSAREHIYDLRSLENYLFVDEH,2.68
12,VVTSAREHIYDLRSLENYMFVDEH,2.4
13,VVTSAREHIYDLRSLENYNFVDEH,3.09
14,VVTSAREHIYDLRSLENYPFVDEH,3
15,VVTSAREHIYDLRSLENYQFVDEH,3.12
16,VVTSAREHIYDLRSLENYRFVDEH,3.52
17,VVTSAREHIYDLRSLENYSFVDEH,3.21
18,VVTSAREHIYDLRSLENYTFVDEH,3.28
19,VVTSAREHIYDLRSLENYVFVDEH,2.11
20,VVTSAREHIYDLRSLENYWFVDEH,1.6
21,VVTSAREHIYDLRSLENYYFVDEH,2.55
22,VVTSAREHIYDLRSLENYHAVDEH,4.11
